{"source": "paper doi:10.1101/697946", "biological_target": "LMP7-His, biotinylated (UniProt P28062)", "test": "BLI"}
{"substance": "Nef-GST (from UniProt P03406 1-206) (natural protein)", "values": [{"measurement": "Kd", "value": 0.735, "unit": "µM"}, {"measurement": "wavelength shift", "value": 71.1, "unit": "pm"}]}
